± gives the standard deviation of the averaged measurements.
Tested on: ATP
Assay: switch fluorescence ratio, 500 uM ATP over buffer (Cy3 cluster intensity, sum of 5 cycles each) (fold (ratio)); higher = stronger signal-on switching upon ATP binding; sequences stand for … in TCGTCGGCAGCGTCAGATGTGTATAAGAGACAGTTTTTTTTTTTTTTTTTTTTTTTTT…TC
Conditions: aptamer strand: ATP DNA aptamer (quencher-CACCTGGGGGAGTATTGCGGAGGAAGG + anchor), 100 nM annealed; ATP concentration: 500 uM
Outline: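 Imaging in selection buffer was followed by imaging after 15 min with 500 uM ATP at 22 °C, for Cy3-labelled switching-strand clusters annealed to 100 nM quencher-labelled ATP aptamer on a modified Illumina MiSeq flow-cell. Five of these buffer/ATP cycles ran, separated by NaOH stripping and re-annealing. The fluorescence ratio per cluster is summed target-cycle over summed buffer-cycle Cy3 intensity, averaged per switch-domain sequence; clusters outside 100-1000 RFU were removed.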
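Also: ATP exposure 15 min at 22 °C before imaging.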

Sequence	switch fluorescence ratio
ATGAGTGGCT	0.999 ± 0.054
AGGCGCGTGG	1.03 ± 0.013
GGTACGGAGA	1.02 ± 0.011
GTGGGTAACT	0.998 ± 0.041
TACCCGACTT	1.13 ± 0.009
GGGTCTACA	0.9714 ± 0.0025
TATTTTGTGC	1.02 ± 0.012
GATAACGAGG	1.05 ± 0.02
TTCCAATTTT	1.03 ± 0.027
GACTATGGGA	1.42 ± 0.55
TCCTGCAAGG	1.07 ± 0.05
TGAGTAAGGG	0.991 ± 0.029
ACGCCCGAAC	1.452 ± 0.013
AGCAGAGTTG	1 ± 0.018
TTAAATAGAT	1.01 ± 0.02
TATGTGGGGG	1 ± 0.016
TTGTTTAGGC	1.1 ± 0.027
CTGATGTGTC	0.996 ± 0.055
TTTTTGTCTG	0.9814 ± 0.0091
ATGGGGGATT	1 ± 0.025
ACGGTGGTCA	1.023 ± 0.0092
TTTAGGTTCC	1.015 ± 0.005
GCTTAACGTA	1.05 ± 0.044
GTGTTTTCCA	0.985 ± 0.036
GAGGTTATGC	0.968 ± 0.04

Sequence	switch fluorescence ratio
CTTTCTTGCT	0.975 ± 0.021
TTTGTGTCTG	0.998 ± 0.012
TCCGTTTGTG	1 ± 0.024
AGGATCGGAT	1.04 ± 0.003
AGGAGACATA	1 ± 0.021
AAGGGGAATC	1.01 ± 0.024
CGTGTTTTTT	0.991 ± 0.029
ATATTAAAAT	1.02 ± 0.021
ATATATTTCG	1.01 ± 0.017
TTCTTAAACA	1.02 ± 0.013
AAAGGGATAG	1.01 ± 0.038
GCGCTCAGAT	1.02 ± 0.028
TATAGTGATG	1.01 ± 0.019
AGTCGCACGA	0.986 ± 0.016
TGGGCTTATC	1.012 ± 0.0097
GTGGGGGTGC	0.987 ± 0.033
TGTTTCTAAT	0.999 ± 0.02
GACACCATTC	1.13 ± 0.017
CAATGAGCTT	0.9907 ± 0.0087
GATATAAACG	1.02 ± 0.03
TTATGATGGG	0.99 ± 0.017
GTTTTCGTCG	1.01 ± 0.054
ATGCATATCG	1 ± 0.036
GTGACGATGT	1.01 ± 0.0071
GTAGTGCAAT	1.1 ± 0.018

Sequence	switch fluorescence ratio
TTTCTAAGTT	1.03 ± 0.021
TTTTGTAAGT	0.992 ± 0.029
TCGGTAGTTA	1.01 ± 0.047
CTCGAAGTGG	0.996 ± 0.021
ATTTCTATTT	1.01 ± 0.059
TTTGCGCTCG	0.968 ± 0.037
CTTAATCGGC	1.09 ± 0.11
TTTTGCATTT	1.04 ± 0.055
GCCTGTTCGG	0.977 ± 0.024
ACGTGCTCGG	1.007 ± 0.01
ACGCTTTTTT	1.01 ± 0.024
GAGCTAGGCA	0.958 ± 0.03
AGTTACGGGT	1.033 ± 0.0032
ATGATGAAGA	1.02 ± 0.019
CCATGGGTAG	0.974 ± 0.056
TTGCTTTGTC	0.994 ± 0.013
CTAATGAGGG	1.02 ± 0.036
GCGTTATTTG	0.9878 ± 0.0073
ATTCCGGGCT	1.05 ± 0.031
AGAAGATGCT	0.9797 ± 0.0088
ATCGAGAGGC	1.06 ± 0.047
ATTGCTGTTC	1.03 ± 0.037
ACATGAAGCA	1.06 ± 0.025
ATATTTCTGG	0.986 ± 0.018
TTGGCCATCG	0.954 ± 0.039

Sequence	switch fluorescence ratio
TAAAGGGAAG	1.01 ± 0.021
GCCCTCACGT	1.08 ± 0.081
AGCCGTACTC	1.2 ± 0.23
CGTTATTGCT	1.016 ± 0.0039
GCGGTATAC	2.72 ± 0.14
GGCGTGTGGT	0.991 ± 0.066
AAAATAGGCT	0.993 ± 0.029
TTGAGATCCG	0.986 ± 0.053
CGGGATAATC	1.07 ± 0.052
AATATAGAGA	1.01 ± 0.011
CGTGAGGGGC	1.028 ± 0.01
CATAAACGCG	1.003 ± 0.0088
TGCGAACACT	1.002 ± 0.0064
GAGAAGTGTG	0.993 ± 0.038
TGTTTAAGAC	1.05 ± 0.092
CTAGTTTGGT	1.008 ± 0.0049
AGAGTTGGGT	0.984 ± 0.02
ACTGGGCCGT	1.01 ± 0.046
ATTATCCAGC	1.01 ± 0.017
AGAATCCAGC	0.982 ± 0.021
CATATTTTTG	0.996 ± 0.013
ACGTATTTGT	1.11 ± 0.013
TACAAGAATA	0.986 ± 0.03
AGGGAAGGGA	1 ± 0.013
TTCTATATAT	1.01 ± 0.035

Sequence	switch fluorescence ratio
CAAATTGCTT	1.01 ± 0.038
ATATCTGAGT	1.03 ± 0.016
CATTGGGAGA	0.984 ± 0.011
TTTCCTGGGT	1.14 ± 0.18
ACTATTCGGC	0.982 ± 0.02
TATCGTTCTC	0.989 ± 0.011
GTGTTGAACG	1.04 ± 0.071
GGTGTTGAAG	0.986 ± 0.044
TCAAATGAAT	0.994 ± 0.05
CCATTTGTT	1.04 ± 0.035
TAGACCTTAA	1.09 ± 0.029
TTATGACTGT	1.015 ± 0.01
TAAATTGCG	0.9991 ± 0.0013
AATGAGTCG	0.991 ± 0.028
AATGGTTAAG	1 ± 0.054
GGGTCTTGAC	0.9858 ± 0.0045
CAGGGGATAT	0.993 ± 0.046
TAGTGATTGG	1 ± 0.052
CCGGAAATGA	1.02 ± 0.054
TATTTGAGTC	0.972 ± 0.021
TGATACGGAG	0.983 ± 0.06
GTTGTATCAT	0.98846 ± 0.00088
ATTATAGTTT	1.03 ± 0.049
AGCGGCATCT	0.983 ± 0.0093
AATTGTTGGC	0.999 ± 0.035

Sequence	switch fluorescence ratio
ACAGTCTATT	1.02 ± 0.043
ATAGTAGGCT	0.994 ± 0.011
CGCCATTGTT	1.01 ± 0.011
CAATTAAACC	1.05 ± 0.028
TCCGGGGTTT	1.02 ± 0.056
GCTCATTGGC	0.992 ± 0.027
CGTATTTTGG	0.986 ± 0.032
GGTTTACGCT	0.996 ± 0.027
CTGCTTCCCG	1.15 ± 0.041
TCCTATAAAA	0.987 ± 0.032
TGCGGAGTAC	1.33 ± 0.14
ATCATTGGTT	1.01 ± 0.015
GACGGTTGGG	0.983 ± 0.026
GGTATTAGGT	1.01 ± 0.011
AGGTAGGGCT	1 ± 0.029
TCGAATGGGT	1.02 ± 0.013
ATGATGAAGT	1.02 ± 0.017
TGGAGATTTT	1.015 ± 0.0062
CTTATTTGAT	0.975 ± 0.01
AAACGACATT	1.13 ± 0.13
TTCTTGGTCT	1.009 ± 0.0067
TTCGTGCATC	1.06 ± 0.026
ACCACCGAGG	1.045 ± 0.0061
CCTAGTCGGC	1.0715 ± 0.00095
GATTTGTCGT	0.986 ± 0.022

Sequence	switch fluorescence ratio
TCGGCCGGAA	1.08 ± 0.025
ATGAATTGGA	0.989 ± 0.017
GGAAAAATTG	1.02 ± 0.021
GCGAGGGAAC	1.03 ± 0.015
AAGGATAGTT	1.01 ± 0.013
TTTCTTATGA	0.971 ± 0.025
TTGATTTATT	0.994 ± 0.017
AGTTGGTTTT	1.02 ± 0.033
GGTGTGCATG	0.99 ± 0.053
GTCGGGCCCG	1.01 ± 0.06
TCCTGGGGGC	1.02 ± 0.058
GAATGGGGTG	1.02 ± 0.041
CCAGGGAGGG	1.06 ± 0.051
TGGGGGTCTA	0.971 ± 0.031
TGGGAAGAAT	0.99323 ± 0.00037
AGGGGTAGTG	0.98 ± 0.019
GGTGGGGCGT	1 ± 0.017
CTGGAATGTT	1.012 ± 0.01
CGCCGGGAGA	1.05 ± 0.036
TTGTCATCTG	1.01 ± 0.012
AGAGTGATGT	1 ± 0.041
ATTGAGCCTG	0.991 ± 0.022
CGGGGACGGA	1.02 ± 0.029
TGGGAGGGAT	0.989 ± 0.021
CGCGGAGGGA	1.02 ± 0.0082

Sequence	switch fluorescence ratio
TCGTACAGTA	1.02 ± 0.029
TTAGGCGGGG	1 ± 0.061
TAAATGATAT	0.984 ± 0.02
TTTATTTCCT	1.07 ± 0.04
CGGGAGAATA	0.989 ± 0.013
AAGTGTGTTC	0.999 ± 0.016
ATATTTTAGT	1.03 ± 0.031
TTGAAGGGTC	0.981 ± 0.057
TGATACTCTG	1.03 ± 0.029
TGACGCAGGA	2.53 ± 1.8
TAGGCGGGGT	0.977 ± 0.05
ATGCATACTG	1.03 ± 0.022
AGTAGCGGGA	1.02 ± 0.024
TACCGGGGGC	1.14 ± 0.09
AGGCCAGGCG	1.02 ± 0.051
ATGATATTAG	1.004 ± 0.0066
CGGCTAGTGG	0.961 ± 0.032
CTGGACTGGT	0.989 ± 0.012
TGGTAGAAGT	0.988 ± 0.022
GGGTTCAATC	1.04 ± 0.014
ACTGCGGGTC	1.031 ± 0.0063
TTAAGGTATG	0.997 ± 0.019
GCTGGTAAAG	0.972 ± 0.017
GCGTTCGGCA	0.991 ± 0.026
CGTGCATTGA	1.03 ± 0.022

From the supplement of paper PMC10126150
